± gives the standard deviation of the averaged measurements.
B1: library; a variant is named by its letters at N, in order (parent)
chain: GCUGUCACCGGUGUAUUACCCUAGUGGUCGACCGGUCUGAUGAGUCUNNNNNNAGACGAAACAGC

Tests used:
[1] = variants of: B1; test: FACS-Seq fitted mean relative fluorescence mCherry/BFP without ligand (log10 relative fluorescence); ligand: hypoxanthine (xanthine aptamer); higher = higher reporter protein expression; conditions: HEK293T, ligand present: no
Protocol: (§1)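 Hammerhead (sTRSV) ribozyme switch libraries with a ligand aptamer grafted on stem I and a randomized N4-6 loop II, cloned into the 3' UTR of mCherry and transiently transfected into HEK293T cells; RNA-Seq 72 h post transfection with ligand added 1 h before transfection; RNA read count / plasmid DNA read count normalized to the non-cleaving sTRSVctl (x100), log10; sequences with >100 DNA reads. FACS-Seq: lentiviral library sorted into 6 bins after 48 h ligand, log-normal fit mean of mCherry/BFP scaled to controls. Printed sequences are partial switch sequences.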

[2] = variants of: B1; test: normalized RNA/DNA level with ligand (relative to sTRSVctl = 100) (log10 (% of sTRSVctl)); ligand: hypoxanthine (xanthine aptamer); higher = less ribozyme self-cleavage, higher mRNA level; conditions: ligand concentration (+) RNA-Seq: 5 mM, HEK293T, reporter: mCherry (pCS4076), ligand present: yes
Protocol: as §1

[3] = variants of: B1; test: normalized RNA/DNA level without ligand (relative to sTRSVctl = 100) (log10 (% of sTRSVctl)); ligand: hypoxanthine (xanthine aptamer); higher = less ribozyme self-cleavage, higher mRNA level; conditions: HEK293T, reporter: mCherry (pCS4076), ligand present: no
Protocol: as §1

[4] = variants of: B1; test: FACS-Seq fitted mean relative fluorescence mCherry/BFP with ligand (log10 relative fluorescence); ligand: hypoxanthine (xanthine aptamer); ligand concentration (+) FACS-Seq: 5 mM; higher = higher reporter protein expression; conditions: HEK293T, ligand present: yes
Protocol: as §1

Row | Variant | FACS-Seq fitted mean (log10) [1] | normalized RNA/DNA level with ligand (log10) [2] | normalized RNA/DNA level without ligand (log10) [3] | FACS-Seq fitted mean (log10) [4]
1 | ACCAUU | 0.187 ± 0.05 | 1.971 ± 0.015 | 1.839 ± 0.007 | 0.395 ± 0.049
2 | AGCACA | -0.251 ± 0.011 | 1.92 ± 0.044 | 1.787 ± 0.0038 | -0.513 ± 0.043
3 | UGCAGA | 0.169 ± 0.0021 | 1.84 ± 0.032 | 1.43 ± 0.021 | 0.4015 ± 0.00097
4 | ACCCUG | 0.60276 ± 0.00041 | 1.875 ± 0.0043 | 1.411 ± 0.0069 | 0.786 ± 0.12
5 | UAUAAU | 0.434 ± 0.04 | 1.93 ± 0.021 | 1.785 ± 0.0039 | 0.588 ± 0.067
6 | GACCGU | 0.658 ± 0.04 | 1.933 ± 0.0015 | 1.91 ± 0.0056 | 0.698 ± 0.013
7 | CUUUAG | 0.52 ± 0.017 | 2.02 ± 0.036 | 1.808 ± 0.017 | 0.386 ± 0.085
8 | GACGUU | 0.455 ± 0.066 | 1.9 ± 0.044 | 1.853 ± 0.0023 | 0.575 ± 0.066
9 | AAACGA | 0.38 ± 0.042 | 1.908 ± 0.0036 | 1.63 ± 0.046 | 0.5899 ± 0.0039
10 | AAUCUG | 0.297 ± 0.034 | 1.85 ± 0.022 | 1.43 ± 0.1 | 0.656 ± 0.024
11 | UACCUA | 0.48 ± 0.072 | 1.93 ± 0.0042 | 1.921 ± 0.019 | 0.369 ± 0.023
12 | CCAAUG | 0.585 ± 0.11 | 1.929 ± 0.011 | 1.61 ± 0.046 | 0.683 ± 0.023
13 | UUGAGG | 0.402 ± 0.054 | 1.98 ± 0.027 | 1.7199 ± 0.00097 | 0.578 ± 0.02
14 | CAGAAC | 0.442 ± 0.066 | 1.884 ± 0.0072 | 1.73 ± 0.039 | 0.407 ± 0.016
15 | UAAUAG | 0.548 ± 0.036 | 1.874 ± 0.0076 | 1.631 ± 0.014 | 0.666 ± 0.019
16 | UCCGUG | 0.223 ± 0.023 | 1.91 ± 0.071 | 1.47 ± 0.072 | 0.508 ± 0.065
17 | AAGCCG | 0.00433 ± 0.082 | 1.728 ± 0.013 | 1.26 ± 0.04 | 0.4844 ± 0.0029
18 | GAAUAC | 0.23 ± 0.012 | 1.89 ± 0.044 | 1.713 ± 0.0067 | 0.499 ± 0.062

Reference: the supplement of paper PMC6757056
